Assay [1] has as its target TGF-β1 (not stated (human TGF-β1 stated for the reporter assay only)). As to the kind of experiment: BLI. (Biolayer interferometry detects binding as a change in optical thickness at a sensor tip.)
The next assay addresses CD127 (IL-7Rα) (UniProt P16871). As to the kind of experiment: BLI.

Experimental findings from PMC12780147 are described below.

As a reminder, the Kd is the concentration at which binding is half-saturated. Read a high Kd as a looser complex.

Sequence of CD127 (IL-7Rα) (P16871 21-459): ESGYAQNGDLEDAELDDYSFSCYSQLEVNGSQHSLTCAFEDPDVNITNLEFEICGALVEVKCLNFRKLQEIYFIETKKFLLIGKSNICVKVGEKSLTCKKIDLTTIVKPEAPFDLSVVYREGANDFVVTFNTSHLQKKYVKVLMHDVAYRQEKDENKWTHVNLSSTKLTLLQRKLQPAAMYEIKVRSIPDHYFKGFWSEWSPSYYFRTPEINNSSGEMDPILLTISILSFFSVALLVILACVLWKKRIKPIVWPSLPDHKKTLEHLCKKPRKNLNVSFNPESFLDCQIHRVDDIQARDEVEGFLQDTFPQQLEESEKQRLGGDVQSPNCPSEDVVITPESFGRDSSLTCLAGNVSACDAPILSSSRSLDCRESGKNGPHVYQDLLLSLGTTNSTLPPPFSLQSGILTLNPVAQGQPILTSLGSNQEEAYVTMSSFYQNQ

In the case of “rhIL-7-hyFc-sTBRII (IL7-TBRII), bifunctional fusion protein (from UniProt P13232 26-177; P37173 23-166) (Fc fusion)”, the Kd in assay [1] was found to be 0.145 nM; with CD127 (IL-7Rα), 6.91 nM.
